# Source: patent US9284369B2, “Inhibition of angiogenesis” (Genentech, Inc., priority 2007, dated 2016)
# Experiments:
# Bv8 protein levels = experiment: Serum Bv8 in A673 tumor-bearing mice treated with cisplatin; type: in vivo, mouse; conditions: cisplatin 5 mg/kg, alone or in combination with anti-VEGF
# Procedure: FIG. 6. […] Anti-Bv8 treatment is mostly effective when treatment is initiated early in tumor development. […] Mice were then treated with control, anti-Bv8, anti-VEGF or combination (anti-VEGF plus anti-Bv8) of antibodies. Tumor volume was measured as described. * indicates significant difference (p<0.05) in tumor volume between combination therapy vs. anti-VEGF monotherapy. c&d. […] Nude mice (c) and C57B1/6 (d) mice were implanted with EL4 cells and underwent treatment with control, anti-Bv8, anti-VEGF or the combination. Tumor volume and terminal tumor weight were measured as described. * indicates significant difference […] in tumor volume in control vs. each monotherapy or the combination therapy. Differences in tumor volume are also significant when comparing combination vs. each monotherapy. e. Cisplatin and anti-VEGF treatment increase Bv8 concentration in the serum. Beige nude mice were implanted with A673 cells and were treated with PBS, cisplatin (5 mg/kg) plus control antibody, cisplatin plus anti-Bv8, or cisplatin plus anti-VEGF or the combination cisplatin, anti-Bv8 and anti-VEGF. Serum Bv8 protein concentrations were measured by ELISA. f. Chemotherapy plus anti-VEGF and anti-Bv8 can effectively suppress tumor growth in established A673 tumors. […]
# TIB42-TAEC cells = experiment: In vitro tube formation of tumor-associated endothelial cells; type: cell-based, mouse; conditions: Bv8 200 ng/ml, VEGF-A 100 ng/ml, 36 hours
# Procedure: Tumor associated endothelial cells (TAECs) were isolated using a magnetic beads sorting system (Miltenyi Biotech), essentially as previously described (Hida et al., Cancer Res 64:8249-8255 (2004)). Briefly, TIB42 mouse lymphoma cells were injected into the dorsal lateral flanks of female beige nude mice. When tumors reached a diameter of […], they were excised, minced and then digested with collagenase II (Worthington Biochemical Corporation). Cell suspensions were than filtered using 100 μm to 40 μm meshes. CD31^+ cells were finally sorted using a FITC-CD31 antibody (BD Biosciences) according to the manufacturer's instructions. CD31+ cells were seeded in gelatin coated plates in the presence of EGM-2MV media (Cambrex). After 24 hs in culture CD31+ non-adherent cells were removed by washing several times with PBS.
# For in vitro tube formation, TIB42-TAEC cells (passages 6-8) were starved for 5 hs in serum free medium. After this, cells were collected and resuspended in serum free medium supplemented with 5% BSA and treated with VEGF-A (100 ng/ml), Bv8 (200 ng/ml) or no addition (control). For specificity tests, Bv8, was incubated in the presence of anti-Bv8 Mabs (10 μg/ml). 5×10^5 cells were seeded in each well of a 24 well pre-coated with Matrigel™ (BD Biosciences) and tube formation was evaluated after 36 hours.
# p44/42 MAPK = experiment: MAPK phosphorylation in TAECs (Western blot); type: cell-based, mouse
# Procedure: TIB42-TAEC cells were starved for 6 hr in basal media supplemented with 0.5% BSA. Cells were then stimulated with human recombinant Bv8 (200 ng/ml; PeproTech), Complete Media (CM), VEGF (100 ng/ml; PeproTech) or BSA (0.5%). Cell extracts were collected at the indicated time-points. Western blot analysis of the extracts from TIB42-TAEC cells was performed using PhosphoPlus p44/42 MAPK™ antibody kit (Cell signaling).
# [1] = tested on: A673, HM7, HPAC and Calu6 cells; experiment: Tumor cell proliferation assay (BrdU incorporation); type: cell-based, human; conditions: range of concentrations
# Procedure: A673, HM7, HPAC and Calu6 cells were trypsinized and washed in media containing 0.5% FBS before seeding into 96-well black Viewplate (Packard Bioscience Company, Meriden, Conn.). Cells were incubated with various amounts of Bv8 (PeproTech Inc., Rocky Hill, N.J.) for 3 days. 10% FBS-containing media served as a positive control. Cell proliferation was assessed by BrdU incorporation using the Cell Proliferation ELISA kit (Roche).
# CD11b+Gr1+ myeloid cells = experiment: Trans-well migration of BM CD11b+Gr1+ cells; type: cell-based, mouse; conditions: comparable to SDF-1
# Procedure: BMMNCs were isolated from naïve Beige nude mice and the CD11b+Gr1+ population was sorted using CD11b microbeads (Miltenyi Biotech, CA) according to protocols provided by the manufacturer. An aliquot of the sorted cells were stained with anti-CD11bAPC and antiGr1-PE to ensure the purity (100%) of CD11b+Gr1+ cells. For migration assay, 2.0×10^5 cells were plated on the top chamber of transwells (Corning Incorporated, NY). The bottom chambers contained 600 μL of media (IMDM (Gibco BRL, CA) supplemented with BIT (Stem Cell Technologies, BC, Canada) containing human Bv8, control antibody, and murine recombinant VEGF in separate wells. Cells were incubated at 37° C. and 5% CO2 for 9 hrs and migration of CD11+b+Gr1+ cells was evaluated by counting the cells in the bottom chamber.
# [2] = tested on: Lin- and CD11b+Gr1+ BM cells; experiment: Bv8 treatment of Lin- and CD11b+Gr1+ BM cells; type: cell-based, mouse
# Procedure: Supplemental FIG. 3. a. Bv8 induces trans-well migration of CD11b+Gr1+ myeloid cells. Controls were PBS or media alone. b&c. Expression of Bv8 receptors in BMMNCs. Beige nude mice were implanted with A673, HM7, HPAC or Calu-06 cells as described. After 10 days, CD11b+Gr1+ myeloid cells were isolated from the BM and Taqman™ analysis was performed to investigate EG-VEGFRs expression in myeloid and non-myeloid (CD11b−Gr1−) subsets of tumor versus Matrigel™-implanted mice. […] Bv8 alters the fate of the progenitor population to myeloid cells (CD11b+Gr1+) and also inhibitors cell death in the Lin-population. The Lin-fraction, isolated from the BMMNCs of beige nude mice, was incubated with Bv8 for 5 days and the frequency of CD11b+Gr1+ cells was evaluated in a FACSCalibur machine. In addition, 7AAD staining was employed to measure the number of dead cells in each treatment. e. Bv8 induces clonogenic capacity of progenitor cells. Lin-population were treated with Bv8 or PBS for 5 days and were plated on methylcellulose (7500 cells per well) and were incubated in 5% CO2 and 37° C. for 15 days. […] L Bv8 is a survival factor for myloid populations. The CD11b+Gr1+ cells, isolated from the BMMNCs of beige/nude mice, were cultured in media and were treated with Bv8 (300 ng/ml) for 5 days. Cell death was measured in a FACSCalibur machine using 7AAD staining. g&h. […] Mice were implanted with A673 (e) or HM7 (f) tumors and were treated with anti-Bv8 or control antibodies as described. Treatment was stopped at day 7 after implantation, as indicated by arrow in the figure. i&j. Discontinued treatment of anti-Bv8 results in rebound of CD11b+Gr1+ cells to A673 (i) and HM7 (j) tumors.
# However, the precise contribution of R1 vs. R2 in mediating Bv8 signaling in BMMNCs remains to be determined. […] To further characterize the effects of Bv8 on the cells of the hematopoietic system, both lineage depleted (Lin— that is devoid of CD11b+Gr1+ cells) and CD11b+Gr1+ cells were isolated from the BM of naïve mice and were treated with recombinant Bv8.
# human neutrophils = experiment: Chemotaxis of peripheral blood neutrophils; type: cell-based
# Procedure: 10^6 cells were washed with HBSS containing 0.2% BSA before putting into transwell insert with 5 μm pore size (Corning Incorporated, Lowell, Mass.). In the lower chamber, media alone or media with various cytokines at various concentrations (maximum at 200 ng/ml) was added. After 3 hr at 37° C., cells in the lower chamber were transferred, mixed with 9 ml ZPAK solution and counted on Z2 Coulter Particle Count and Size Analyzer (Beckman Coulter, Fullerton, Calif.).
# PKR1/EG-VEGFR1 = biological target: T1, PKR1/EG-VEGFR1 (Homo sapiens, UniProt Q8TCW9); experiment: Bv8 bioactivity assay, GeneBLAzer NFAT-CHO cells transfected with PKR1/EG-VEGFR1; type: cell-based; conditions: Bv8 0.2-200 ng/ml; VEGF-A up to 200 ng/ml
# T1 construct: host or cells: GeneBLAzer NFAT-CHO cells
# T1 sequence (Q8TCW9 whole entry): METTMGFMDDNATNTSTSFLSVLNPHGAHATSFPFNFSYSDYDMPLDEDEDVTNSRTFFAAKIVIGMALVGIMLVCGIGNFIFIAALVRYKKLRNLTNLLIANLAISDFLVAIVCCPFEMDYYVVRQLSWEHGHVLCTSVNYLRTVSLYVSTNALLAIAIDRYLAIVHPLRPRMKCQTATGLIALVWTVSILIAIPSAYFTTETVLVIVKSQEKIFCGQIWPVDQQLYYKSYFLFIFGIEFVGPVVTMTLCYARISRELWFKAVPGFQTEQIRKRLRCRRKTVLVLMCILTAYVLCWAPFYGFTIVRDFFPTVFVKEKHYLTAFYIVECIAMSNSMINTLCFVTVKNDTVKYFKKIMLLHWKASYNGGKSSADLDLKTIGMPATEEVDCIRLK
# Procedure: The GeneBLAzer® NFAT-CHO cells were obtained from Invitrogen Corporation (Carlsbad, Calif.). Cells were stably transfected with PKR1/EG-VEGFR1 and grown in DMEM (high glucose) containing 10% dialysed serum, 0.1 mM NEAA, 2 mM GlutaMax™ (Gibco), 1 mM sodium pyruvate, 10 μg/ml Zeocin, 500 μg/ml hygromycin. Cells were plated into 96-well Viewplate (Packard) with 2.5×10^4 in […] in 1% DMEM overnight at 5% CO2, 37° C. On the following day, cells were treated with various column fractions that were concentrated with Microcon Centrifugal Filter Devices (Ultracel YM-3) from Millipore. 0.2-0.02 ng/ml hBv8 (Peprotech Inc.) prepared in 1% DMEM was used as a positive control. One hour later, media was removed and replaced with […] Hank's solution containing 0.1% BSA and 6× loading buffer containing 1 mM CCF4 (Invitrogen Corporation). Plates were incubated for 1.5 hr at room temperature in the dark and read on Wallac plate reader at excitation wavelength of 410 nm and emission wavelength of 450/520 nm. Negative controls were cells with no ligand added and control media alone. CHO cells were stimulated with recombinant human Bv8 or pooled fractions for 1 hr before adding the β-lactamase substrate CCF4. To assess the specificity of the column fractions, anti-Bv8 antibodies 2B9 and 3F1 were added at […].
Molecule,Bv8 level in the serum (Bv8 protein levels),tube formation in Matrigel (TIB42-TAEC cells),MAP kinase phosphorylation in TAECs (p44/42 MAPK),effect on proliferation of tumor cell lines [1],effect on proliferation of tumor cell lines ([1]; listed as recombinant Bv8),migration of BM CD11b+Gr1+ cells (CD11b+Gr1+ myeloid cells),"dead cells among CD11b+Gr1+ cells ([2]; Bv8 300 ng/ml, 5 days)","number of dead cells in Lin- population ([2]; Bv8 for 5 days, 7AAD)","CD11b+Gr1+ cells arising in Lin- population ([2]; Bv8 for 5 days, vs controls)",MAPK pathway in CD11b+Gr1+ cells ([2]; data not shown),CFU colonies from Lin- cells ([2]; p<0.05 vs control-treated cells),concentration of maximal stimulation (human neutrophils),maximal stimulation of chemotaxis above control (human neutrophils; 3 hr),stimulation of PKR1/EG-VEGFR1 transfected CHO cells (PKR1/EG-VEGFR1)
N.N.[Cl][Pt][Cl] [cisplatin],significantly (p<0.05) increased,,,,,,,,,,,,,
"Bv8: recombinant Bv8 (Prokineticin-2) protein, PeproTech (protein) AVITGACDKDSQCGGGMCCAVSIWVKSIRICTPMGKLGDSCHPLTRKVPFFGRRMHHTCPCLPGLACLRTSFNRFICLAQK",,promoted tube formation,strong induction of MAP kinase phosphorylation,neither the anti-Bv8 Mabs nor Bv8 itself had any detectable effects,failed to stimulate the proliferation,promoted migration,fewer dead cells,significantly lower than controls,higher expression of CD11b+Gr1+ cells,activation of MAPK pathway in a time dependent manner,greater number of colonies,~2 pM,~3 fold,dose-dependent stimulation
